Data set [1] deals with T1, SRA (human) (UniProt Q96T88).
T1 sequence: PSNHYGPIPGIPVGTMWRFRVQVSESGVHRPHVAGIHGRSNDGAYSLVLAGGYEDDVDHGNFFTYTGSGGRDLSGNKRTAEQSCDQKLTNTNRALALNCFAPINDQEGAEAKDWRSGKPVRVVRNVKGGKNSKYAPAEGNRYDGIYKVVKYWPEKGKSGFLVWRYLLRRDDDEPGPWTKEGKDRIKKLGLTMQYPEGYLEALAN
The data set is described as follows: FP. To be noted: DNA length series; 5-methyl-dC (hemi-methylated CpG); ITC: 10 mM HEPES pH 8.0, 100 mM NaCl, 18 C; EMSA: 20 mM HEPES pH 7.5, 100 mM NaCl, 8% glycerol, 1 mM DTT, on ice; pull-down: 20 mM HEPES-NaOH pH 8.0, 100 mM …. In general terms: In EMSA bound probe runs differently from free probe, usually more slowly.

Data set [2] concerns the target T2, SRA-Spacer (human) (UniProt Q96T88).
T2 sequence: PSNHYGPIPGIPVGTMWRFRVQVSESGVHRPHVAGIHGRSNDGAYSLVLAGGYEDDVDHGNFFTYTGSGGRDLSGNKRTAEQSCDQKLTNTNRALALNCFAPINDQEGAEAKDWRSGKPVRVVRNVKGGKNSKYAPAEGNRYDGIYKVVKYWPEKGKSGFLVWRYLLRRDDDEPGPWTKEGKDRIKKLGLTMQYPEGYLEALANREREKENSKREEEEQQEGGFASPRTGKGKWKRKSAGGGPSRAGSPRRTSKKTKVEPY
Briefly: FP. The settings on record: DNA length series; 5-methyl-dC (hemi-methylated CpG); ITC: 10 mM HEPES pH 8.0, 100 mM NaCl, 18 C; EMSA: 20 mM HEPES pH 7.5, 100 mM NaCl, 8% glycerol, 1 mM DTT, on ice; pull-down: 20 mM HEPES-NaOH pH 8.0, 100 mM ….

For data set [3], the target named is UHRF1 TTD, 134-285 (UniProt Q96T88). Briefly: ITC. The settings on record: reference: unmodified Spacer642–664 peptide; sites S651.
In data set [4] the target is PHD-SRA of UHRF1 (human). Briefly: ITC; 0.05 mM protein in the cell, 0.5 mM protein or peptide in the syringe, iTC200, 18 °C, 10 mM HEPES pH 8.0, 100 mM NaCl. In general terms: ITC needs no label: the signal is the heat of the interaction.

UHRF1 Spacer, 642-664, sequence (Q96T88 134-285, change not shown): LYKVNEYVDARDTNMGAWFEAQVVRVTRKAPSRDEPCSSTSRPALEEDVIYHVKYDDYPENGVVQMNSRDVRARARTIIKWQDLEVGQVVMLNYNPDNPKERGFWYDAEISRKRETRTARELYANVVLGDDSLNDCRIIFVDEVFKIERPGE

For the substance FAM-16bp-HM-DNA, the Kd (in general, the constant that tells how readily two partners part at equilibrium) in data set [1] turned out to be 29.4 µM; in data set [2] it was 0.39 µM.
In the same order, the values of FAM-20bp-HM-DNA are 9.59 µM and 0.4 µM.
For “UHRF1 Spacer, 642-664 (from UniProt Q96T88) pS651 Spacer642–664 peptide”, in data set [3], the “binding against the reference” value is listed as “weaker”.
With “H3 peptide (1–17) (from UniProt P68431 2-18)”, the fold decrease in binding affinity against the PHD alone in data set [4] turned out to be 8 fold.

For the origin of these results see PMC4822050, “Hemi-methylated DNA opens a closed conformation of UHRF1 to facilitate its histone recognition” (Nature Communications, 2016).
